From article PMC2873508

Legend:
[1] = molecular target: feline CD134 on MCC cells (feline)
[2] = molecular target: Chimaeric GL8 (ABSN) Env with the V4-V5 region of variant B14 (feline immunodeficiency virus (FIV), strain GL8 | feline immunodeficiency virus (FIV), strain GL8, in vivo variant)
[3] = molecular target: FIV GL8 Env (molecular clone 414) (feline immunodeficiency virus (FIV), strain GL8)
[4] = molecular target: CD134 on MYA-1 cells (not stated (endogenous in MYA-1 cells))
[5] = molecular target: CD134 on MYA-1 cells (not stated (endogenous in MYA-1 cells)); remark: listed apart in the source

Substance | ratio of luciferase counts (CPM) of HIV(FIV) pseudotype infection on MCC cells with feline CD134 divided by counts on MCC cells with the feCRD1 chimera (feline CRD1 x human CD134); dependency on CRD2 [1] | percent infection of MYA-1 cells by HIV(FIV) pseudotype (Env with cell CD134) with sFc-CD134, relative to no antagonist (Fig. 7B) [2] | percent infection of MYA-1 cells by HIV(FIV) pseudotype (Env with cell CD134) with sFc-CD134, relative to no antagonist (Fig. 7B) [3] | inhibition of HIV(FIV) pseudotype infection of MYA-1 cells by anti-CD134 antibody 7D6 (series 0.4 to 50 μg/ml; reduced by 90% at 0.4 μg/ml) (% reduction of infection) [4] | percent infection of MYA-1 cells by HIV(FIV) pseudotype with anti-CD134 antibody, relative to no antagonist (Fig. 7A) [5]
FIV Env of A613 variant B23 (natural protein) | 223 | – | – | – | –
FIV B2542 Env (natural protein) | 5 | – | – | – | –
soluble Fc-CD134 (Fc fusion) | – | 65.1 % infection | 18.4 % infection | – | –
FIV Env of A613 variant B14 (natural protein) | 10 | – | – | > 99 | 19.5 % infection
